Data as given in EP1222208B1 (THE GENERAL HOSPITAL CORPORATION, dated 2008).
Values joined by “and” are separate entries in the source; they are usually repeats but may differ in a detail not shown here. Equal values may be shown once. Square brackets hold non-standard residues; d marks the D form. Ends that are not written are not given here. Nle = CCCC[C@H](N)C(=O)O

Molecular target: truncated human PTH-1 receptor hΔNt (human), Q03431
Assay: cell-based or functional assay

Binder	cAMP Emax, COS-7 cells, hDeINt (picomole/well)	cAMP potency relative to native PTH(1-14), truncated hPTH-1 receptor
AVSEIQL[Nle]HNLGKHLASVER[Nle]QWLRKKLQDVHNY-NH2 [[Nle^8,21,Tyr^34]-rPTH(1-34)NH2]	243	–
AVAEIQLMHAR-NH2 [[A3,A10,R11]rPTH(1-11)]	243	–
AVSEIQLMHNLGKH-NH2 [native rat (r)PTH(1-14)NH2]	222	–
SVSEIQLMHNLGKHLNSMERVEWLRKKLQDVHNY-NH2 [[Tyr^34]human (h)PTH(1-34)NH2]	238	–
AVAEIQLMHARAKH-NH2 [[A3,A10,R11,A12]rPTH(1-14)amide]	250	100 fold

Molecular target: T1, human PTH-1 receptor (human, UniProt Q03431 27-593)
T1 sequence (looked up): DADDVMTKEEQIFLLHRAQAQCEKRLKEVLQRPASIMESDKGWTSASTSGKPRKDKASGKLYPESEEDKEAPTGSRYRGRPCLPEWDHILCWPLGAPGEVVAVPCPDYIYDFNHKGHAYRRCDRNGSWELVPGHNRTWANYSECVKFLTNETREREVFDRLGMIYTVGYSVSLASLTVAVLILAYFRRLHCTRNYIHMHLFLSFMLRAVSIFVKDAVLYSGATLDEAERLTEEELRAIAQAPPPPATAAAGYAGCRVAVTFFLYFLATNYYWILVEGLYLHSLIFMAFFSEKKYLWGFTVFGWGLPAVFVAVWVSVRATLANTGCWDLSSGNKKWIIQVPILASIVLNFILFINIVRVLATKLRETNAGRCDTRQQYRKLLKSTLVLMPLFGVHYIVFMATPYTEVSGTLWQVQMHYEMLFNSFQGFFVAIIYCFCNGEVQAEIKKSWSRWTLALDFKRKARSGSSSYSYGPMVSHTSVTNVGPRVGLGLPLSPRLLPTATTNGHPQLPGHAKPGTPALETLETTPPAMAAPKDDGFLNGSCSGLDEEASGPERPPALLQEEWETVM
Assay: cell-based or functional assay

Binder	cAMP EC50, COS-7 cells, WT hPTH-1 receptor	cAMP Emax, COS-7 cells, WT hPTH-1 receptor
AVSEIQL[Nle]HNLGKHLASVER[Nle]QWLRKKLQDVHNY-NH2 [[Nle^8,21,Tyr^34]-rPTH(1-34)NH2]	-9.2 Log M and 0.0007 µM	226 picomole/well
AVAEIQLMHAR-NH2 [[A3,A10,R11]rPTH(1-11)]	-4.6 Log M and 29.1 µM	238 picomole/well
AVSEIQLMHNLGKH-NH2 [native rat (r)PTH(1-14)NH2]	-3.8 Log M and 152 µM	221 picomole/well
SVSEIQLMHNLGKHLNSMERVEWLRKKLQDVHNY-NH2 [[Tyr^34]human (h)PTH(1-34)NH2]	-9.3 Log M and 0.0005 µM	226 picomole/well
AVAEIQLMHARAKH-NH2 [[A3,A10,R11,A12]rPTH(1-14)amide]	-6 Log M and 4.66 µM	243 picomole/well

Molecular target: T1, human PTH-1 receptor
Assay: cell-based or functional assay
Remark: another data set of the same source

Binder	cAMP EC50, HKRK-B7 cells
AVAEIQLMHQRAKH-NH2 [[A3,Q10,R11,A12]rPTH(1-14)]	-6.1 Log M and 0.8 µM
AVSEIQL[Nle]HNLGKHLASVER[Nle]QWLRKKLQDVHNY-NH2 [[Nle^8,21,Tyr^34]-rPTH(1-34)NH2]	-8.6 Log M and 0.0033 µM
AVAEIQLMHAR-NH2 [[A3,A10,R11]rPTH(1-11)]	-4.8 Log M and 17.1 µM
AVAEIQLMHARAK-NH2 [[A3,A10,R11,A12]rPTH(1-13)]	-5.6 Log M and 2.4 µM
AVSEIQLMHNLGKH-NH2 [native rat (r)PTH(1-14)NH2]	-3.9 Log M and 133 µM
AVAEIQLMHARA-NH2 [[A3,A10,R11,A12]rPTH(1-12)]	-5 Log M and 10.2 µM
SVSEIQLMHNLGKHLNSMERVEWLRKKLQDVHNY-NH2 [[Tyr^34]human (h)PTH(1-34)NH2]	-8.4 Log M and 0.004 µM
AVAEIQLMHARAKH-NH2 [[A3,A10,R11,A12]rPTH(1-14)amide]	-6.1 Log M and 0.83 µM
AVAEIQLMHARAKW-NH2 [[A3,A10,R11,A12,W14]rPTH(1-14)amide]	-6.3 Log M and 0.6 µM

Molecular target: human PTH-2 receptor (human, UniProt P49190 25-550)
Sequence (P49190 25-550): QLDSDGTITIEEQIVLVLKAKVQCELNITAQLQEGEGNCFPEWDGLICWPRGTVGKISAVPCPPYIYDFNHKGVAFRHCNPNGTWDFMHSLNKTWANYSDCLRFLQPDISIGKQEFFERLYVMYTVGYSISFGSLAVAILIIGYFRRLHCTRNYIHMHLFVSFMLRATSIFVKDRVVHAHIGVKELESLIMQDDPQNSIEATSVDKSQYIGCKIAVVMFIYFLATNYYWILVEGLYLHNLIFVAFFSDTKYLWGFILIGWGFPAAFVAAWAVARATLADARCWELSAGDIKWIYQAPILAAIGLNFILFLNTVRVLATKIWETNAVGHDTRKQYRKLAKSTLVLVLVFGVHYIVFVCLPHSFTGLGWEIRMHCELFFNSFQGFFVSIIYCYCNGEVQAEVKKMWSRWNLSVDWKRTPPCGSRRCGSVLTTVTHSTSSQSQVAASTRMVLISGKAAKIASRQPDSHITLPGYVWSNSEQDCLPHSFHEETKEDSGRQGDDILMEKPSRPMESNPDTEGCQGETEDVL
Assay: cell-based or functional assay

Binder	cAMP EC50, LLC-P2R-22 cells
AVSEIQL[Nle]HNLGKHLASVER[Nle]QWLRKKLQDVHNY-NH2 [[Nle^8,21,Tyr^34]-rPTH(1-34)NH2]	-8.4 Log M and 0.0044 µM
AVAEIQLMHARAK-NH2 [[A3,A10,R11,A12]rPTH(1-13)]	-4 Log M and 106 µM
AVAEIQLMHARA-NH2 [[A3,A10,R11,A12]rPTH(1-12)]	-3.5 Log M and 342 µM
AVAEIQLMHARAKH-NH2 [[A3,A10,R11,A12]rPTH(1-14)amide]	-3.9 Log M and 126 µM

Molecular target: T1, human PTH-1 receptor
Assay: cell-based or functional assay
Remark: another data set of the same source

Binder	cAMP EC50, SAOS-2 cells
SVSEIQLMHNLGKHLNSMERVEWLRKKLQDVHNY-NH2 [[Tyr^34]human (h)PTH(1-34)NH2]	-9.28 Log M and 0.00052 µM

Molecular target: T2, rat PTH-1 receptor (rat, UniProt P25961 27-591)
T2 sequence (looked up): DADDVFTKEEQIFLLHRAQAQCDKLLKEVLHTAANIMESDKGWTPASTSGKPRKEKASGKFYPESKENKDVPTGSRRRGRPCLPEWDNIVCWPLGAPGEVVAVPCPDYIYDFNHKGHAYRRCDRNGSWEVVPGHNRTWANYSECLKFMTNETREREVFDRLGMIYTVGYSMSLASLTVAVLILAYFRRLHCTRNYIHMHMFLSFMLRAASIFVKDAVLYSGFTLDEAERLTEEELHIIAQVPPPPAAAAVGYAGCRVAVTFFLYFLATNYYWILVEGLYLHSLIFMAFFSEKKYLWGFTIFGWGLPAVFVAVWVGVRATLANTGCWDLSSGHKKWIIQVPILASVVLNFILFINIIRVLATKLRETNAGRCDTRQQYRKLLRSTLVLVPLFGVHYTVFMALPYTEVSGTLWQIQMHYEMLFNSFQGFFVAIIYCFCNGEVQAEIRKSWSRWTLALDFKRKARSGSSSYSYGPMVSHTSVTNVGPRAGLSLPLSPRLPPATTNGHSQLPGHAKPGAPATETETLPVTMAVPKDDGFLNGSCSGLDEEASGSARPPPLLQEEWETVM
Assay: cell-based or functional assay

Binder	cAMP EC50, ROS 17/2.8 cells
AVAEIQLMHARAKW-NH2 [[A3,A10,R11,A12,W14]rPTH(1-14)amide]	-5.5 Log M

Molecular target: T1, human PTH-1 receptor
Assay: cell-based or functional assay
Remark: another data set of the same source

Binder	cAMP potency relative to native PTH(1-14), LLC-PK1 cells stably expressing the hPTH-1 receptor	cAMP potency relative to native PTH(1-14), LLC-PK-1 cells stably expressing the hPTH-1 receptor
AVAEIQLMHARAKH-NH2 [[A3,A10,R11,A12]rPTH(1-14)amide]	160 fold	100 fold
AVAEIQLMHARAKW-NH2 [[A3,A10,R11,A12,W14]rPTH(1-14)amide]	220 fold	–
